{"source": "patent US20190211097A1", "molecular_target": "human CD32a (FcgammaRIIa) on washed human platelets (human) (UniProt P12318)", "sequence (P12318 34-317 limits assumed)": "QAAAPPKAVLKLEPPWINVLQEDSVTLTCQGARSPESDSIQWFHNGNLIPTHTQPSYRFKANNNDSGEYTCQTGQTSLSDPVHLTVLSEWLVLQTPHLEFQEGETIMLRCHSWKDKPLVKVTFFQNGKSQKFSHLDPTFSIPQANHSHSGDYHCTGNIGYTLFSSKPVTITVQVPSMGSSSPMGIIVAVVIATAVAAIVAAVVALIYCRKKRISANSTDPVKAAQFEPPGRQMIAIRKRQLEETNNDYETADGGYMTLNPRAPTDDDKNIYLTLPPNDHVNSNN", "assay": "cell-based or functional assay"}
{"substance": "M90 anti-CD40L mAb + M91 anti-CD40L mAb + CD40L immune complex (a polyclonal immune complex) (from UniProt P29965 113-261)", "values": [{"measurement": "washed human platelet aggregation induced by the IC (IC concentration)", "result": 1000, "unit": "nM"}]}
{"substance": "deglycosylated native mouse IV.3 IgG2b mAb (antibody)", "values": [{"measurement": "mAb concentration that blocked 250 nM M90+CD40L IC-induced platelet aggregation", "result": 7, "unit": "nM"}]}
{"substance": "native chimeric IV.3 human IgG1 mAb (antibody)", "values": [{"measurement": "mAb concentration needed to block 500 nM M90+CD40L IC-induced platelet aggregation", "result": "< 5", "unit": "nM"}]}
{"substance": "M90 anti-CD40L mAb + CD40L immune complex (from UniProt P29965 113-261)", "values": [{"measurement": "washed human platelet aggregation induced by the IC (IC concentration)", "result": 250, "unit": "nM"}]}
{"substance": "effector-deficient humanized IV.3.1 IgG1 E269R mAb (antibody)", "values": [{"measurement": "mAb concentration that blocked 250 nM HIT-like IC-induced platelet aggregation", "result": 40, "unit": "nM"}, {"measurement": "mAb concentration that blocked 500 nM M90+CD40L IC-induced platelet aggregation", "result": 6, "unit": "nM"}, {"measurement": "mAb concentration that blocked 1000 nM M90+M91+CD40L IC-induced platelet aggregation", "result": 25, "unit": "nM"}, {"measurement": "mAb concentration that blocked APS-like IC-induced platelet aggregation", "result": 33, "unit": "nM"}, {"measurement": "mAb concentration that did not inhibit 500 nM M90+CD40L IC-induced platelet aggregation", "result": 2, "unit": "nM"}, {"measurement": "mAb concentration that inhibited 500 nM M90+CD40L IC-induced platelet aggregation", "result": 3, "unit": "nM"}, {"measurement": "platelet activation by the combination of hIV.3.1 (25 nM), hAT-10 (90 nM) and MDE-8 (75 nM), all IgG1 E269R", "result": 25, "unit": "nM"}, {"measurement": "platelet aggregation by the combination of hAT-10 (2 nM), hIV.3.1 (150 nM) and MDE-8 (150 nM), all IgG1 E269R", "result": 150, "unit": "nM"}]}
